Measured values as given in the nanobody polyreactivity screen of Harvey et al. (2022).

Test: yeast display, Sf9 membrane polyspecificity reagent, FACS + sequencing; frameworks hold sequencing errors
Summary of the method: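 A synthetic nanobody library was expressed on Saccharomyces cerevisiae BJ5465 by galactose induction for 36–48 hours. The library was stained for 1 hour at 4 °C with 10% biotinylated, detergent-solubilized Sf9 membrane reagent and enriched with streptavidin microbeads before FACS. Low and high (top ~1%) gates were set on anti-HA fluorescence for expression and streptavidin fluorescence for reagent binding, and each polyreactivity label reflects the gate of origin.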

Sequence	polyreactivity (PSR sort gate)
QVQLVESGGGLVQAGGSLRLSCAASGSIFAYYAMGWYRQAPGKERELVAAISRGGGSTYYADSVKGRFTISRDNAKNTVYLQMNSLKPEDTAVYYCAAQYVYWTNRVRQHVTLNDYWGQGTQVTVSS	high polyreactivity
QVQLVESGGGLVQAGGSLRLSCAASGFIFLPYFMAWYRQAHGKERELVAAISGVGGITYYADSVKGRFTISRDNAKNTVYLQMNSLKPEDTAVYYCAAESSYFVALNQFYTVEFYYWGQGTQVTVSS	low polyreactivity
QDQLEESGGGLVQAGGSLRLSCAASGFIFNHYAMGWYRQAPGKEREFVAAISWSGGSTYYADSVKGRFTISRDYAKNTVYLQMNSLKPEDTAVYYCAASYNGLWHGDYDYWGQGTQVTVSS	low polyreactivity
QVQLVESGGGLVQAGGSLRLSSAASGSTFIRYAMGWYRQAPGKERELVAAISTSGGSTYYADSVKGRFTISRDNAKNTVYLQMNSLKPEDTAVYYCNAVSRSYRYAGVPGFHYDYWGQGTQVTVSS	high polyreactivity
QVQLVESGGGLVQAGGSLRLSCAASGLIFFFYAMGWYRQAPGKERELVASISGGGITYYADSVKGRFTISRDNAKNTVYLQMNSLKPEDTAVIKNDYWGQGTQVTVSS	low polyreactivity
QVQLVESGGGLVQAGGSLRLTCAASGRILGRNAMGWYRQAPGKEREFVAGISYSGTSTYYADSVKGRFTISRDNAKNTVYLQMNSLKPEDTAVYYCNVKNQVYRRYYYWGQGTQVTVSS	high polyreactivity
QVQLVESGGGLVQAGGSLRLSCAASGRIFSDYAMGWYRQAPGKERELVAAISRSGTRTYYADSVKGRFTISRDNAKNTVYLQMNSLKPEDTAVYYCAAKTPYGRAGQEEDYWGQGTQVTVSS	high polyreactivity
QVQLVESGGGLVQAGGSLRLSCAASGRISWGYAMGWYRPAPGKERELVAVINFNGGRTYYADSVKGRFTISRDNAKNTVYLQMNSLKPEDTAVYYCAADSGYEYDYWGQGTQVTVSS	low polyreactivity
QVQLQESGGGLVQAGGSLRLSCAASGNIFLGDTMGWYRQAPGKEREFVAGIARGGNPYYADSVKGRFTISRNNAKNTVYLQKNSLKAEDTAVHYCAVQRSHASDYNYWGQGTQVTVSS	low polyreactivity
QVQLAESGGGLVQAGGSLRLSCAASGLTFNAYAMGWYRQAPGKERELVADITTSDGSTFYADSVKGRFTISRDNAKNTVYLQMNRLKPEDTAVYYCNADAYGWYSGPWFKWLLWYDYWGQGTQVTVSS	low polyreactivity
QVQLVESGGGLVQAGGSLRLICAASGSIFSTNTKGWYRQAPGKERELVAAISISGGSTHYADSVKGRFTISRDNAKNPVYLQMNSLKPEYTAVYYCAADLWYYAYSYDYWGRGTQVTVSS	high polyreactivity
QVQLVESGGGLVQAGGSLRLSCAASGRTFRWYTLGWYRQAPGKERELVAAITSRGGSTYADSVKGRFTISRDNAKNTVYLQMNSLKPEDTAVYYCNAARTYQYDYWGQGTQVTVSS	high polyreactivity
QVQLVESGGGLVKAGGSLRLSCAAYGIIYYPYAMGRYRHAPGKEWELVAAIDRSGSSTYYADSVKGRFTISRDNAKNTVYVQMNSLKPEDTAVYYCAAAHTYFTAYGDYWGQGTQVTVSS	low polyreactivity
QVQLVESGGGLFQAGGSLRLSCAASGFTFPHYMGWYRQAPGKERELVAAINVSGGSTSYADSVKGRFSISRDNAKNTVYLQMNSLKPEDTGVYFCAKDLRFRLFSYPSDYWGQGTQVTVSS	low polyreactivity
QVQLVESGGGLVQAGGSLRLSCAASGRIFIDYAMGWYRQAPGKERELVATITSSGGSTYYADSVKGRFTISRDNAKNTVYLQMNSLKPEDTAVYYCNKEGSYDYDFWGQGTQVTVSS	low polyreactivity
QVQLVESGGALVQAGCSLRLSCAASGITFAPYAKGWYRQAPGKEREMVAGINTGGSTYYADSVKGRFTISRDNAKYTVYLQMNSLKPEDTADYYCATESYPADQDIPGSDYWGQGTQVTVSS	low polyreactivity
QVQLVESGGGLVQAGGSLRLSCAASGRTFPGYAMGWYRQAPGKERELVATITFSDGSTYYADSVKGRFTISRDNAKNSVYLQMNSLKPEDTAVYYCNARRSYFLRYGVNYWGQGTQVTVSS	low polyreactivity
QVQLVESGGGLVQAGGSLRLSCAASGFIFQKYVMGWSRQAPGKERELVAVISRSGDSTRYADSVKGRFTISRDNAKNTVYLQMNSLKPEDTAVFYCAAASAKFTGTGYYFWGQGTQVTVSS	high polyreactivity
QVQHVESGGGLVQAGGSLRLSCAASGRIFGSNAMGWYRQPPGKDRELVAAITWSGGSTYYADSVKGRFTISRDNAKNTVYLQMNSLKPEDTAVYDCAAPASRTKGPFPGYDYWGQGTQVTVSS	high polyreactivity
QVQLVDSGGGLVQAGGSLRLTCAASGSIFNHKAMGGYRQAHGKERELVAAIRFSTGTTYYADSVKGRFTISRDYAMNTVYVQMNSLKPEDTAVYYWNAQGYFTDYWLSSYFRDFDYWGQGTHVTVSS	low polyreactivity
QVQLVESGGGLVQAGGSLRLSCAASGRTIFYNAMGWYRQAPGKERELVAAINWRGGSTYYADSVKGRFTISRDIAKNTVYLQMNSLKPEDTAVYYCAARNVYVWYDYWGQGTQVTVSS	low polyreactivity
QVQLVESGGGLVQAGGSLRLSCAASGYNFSIYAMGWYRQAPGKERELVAAIRSDARTYYADSVKGRFTISRDNAKNTVYLQMNSLKPEDTAVYYCAADQYSYAANRPFYRGYYWGQGTQVTVSS	high polyreactivity

Sequence	polyreactivity (PSR sort gate)
QVQLVDSGGGLVQAGGSLRLSCAASGSTFPDNAMGWYRQAPGKERALVAAIRWTGGSTYYADSVKGRFTISRDNAKNTVYLQMNSLKPEDTAVYYCNTAYTVSWRSPYDYWGQGTQVTVSS	high polyreactivity
QVQLVESGGGLVQAGGSLRLSCAASGSIIYRYAMGWYRQARGKERELVAAISTTGGRTYYADSVKGRFTISRDNAKNTVYLQMNSLKPEDTAVYYCNTYGSGTHSTGYDYWGQGTQVTVSS	low polyreactivity
QVQLVESAGGLVQAGGSLRLICAASGSNFRRYAMGWYRQAPGKERELVAAITENTTSTNYADSVKGRFTISRDNAKNTVYLQMNSLKPEDTAVYYCAAETFATSGEMYYWGQGTQVTVSS	low polyreactivity
QVQLVESGGGLVQAGGSLRLSCAASGGTIAYNAMGWYRQAPGKERELVAAISSSGGRTYYADSVKGRFTISRDNAKNTVYLQMNSLKPEDTAVYYCATPVTNGFDYWGQGTQVTVSS	high polyreactivity
QVQLVESGGGLVQAGGSLRLSCAASGRIFPDYDMGWYRQAPGKERELVAAITQRGGSTYADSVKGRFTISRDNAKNTVYLQMNSLKPEDTAVYYCAREYYEAYEYWGQGTQVTVSS	low polyreactivity
QVQLVESGGGLIQAGGSLRLSCAASGSTFPYYAMGWYRQAPVKEREFVAAIRFSGSSTYDADSVKGRYTISRDYAKTTVYLQMNSLNREDTAVYYCATDYWLPSFSYDYWGQGTQVTVSS	low polyreactivity
QVQLVESGGGLVQAGGSLRLSCAAYGLTLGRNAMGWYRQAPGKERELVAAITQSGGSTYYADSVKGRFTISRDNAKITVYLQMNSLKPEDTAVFYGAAQYSWGHYYTFDYWGQGTQVTVSS	low polyreactivity
QVQLVESGGGLVQAGGSLRLSCAASGSIFLFNAMGWNRQAPGKERELVAANTSSGTRTYYADSVKGRFTISRDNAKNTVYLQMNSMKPEDTAVYYCNAVGPVDSYHRYYYWGQGTQVTVSS	low polyreactivity
QVQLQESGGGLVQAGGSLRLSCAASGYISFSGYMGRYRQAPGKEREFVDSITPGRSTYYADSVKGRFTISRDNAENTVYLQMNSLKPEDTAVYYCAADDSRTEQHAYWGQGTQVTVSS	high polyreactivity
QVQLVESGGGLVQAGGSLRLSCAASGRTFFLYAMGWYRQAPGKERELVAAITDGGSITYYADSVKGRFTISRDNAKNTVYLQMNSLKPEDTAVYYCAAEYWHVYDGDYWGYDYWGQGTQVTVSS	high polyreactivity
QVQLVESGGGLVQAGGSLRLSCAASGRTFVYYAMGWYRQAPGTERELVAAITFSGGYTYYADSVKGRFTISRDNAKNTVYLQMNSLKPEDTAVYYCAAQYRYSYPLGDYWGQGTQVTVSS	low polyreactivity
QVQLVESGGGLVQAGGSLRLSCAASGLIFRRNAMGWYRQAPGKERELVAAISWSGGSTYYADSVKGRFTISRDNAKNTVYLQMNSLKPEDTAVYYCNRGGFSRYYYWGHGTQVTVSS	low polyreactivity
QVQLVESGGGLVQAGGSLRLSCAASGRTFVANRMGWYRQAPGKERELVAAINDGDDTYYADSVKGRFTISRDNAKNTVYLQMNSLKPEDTAVYYCAADIIYGYEVYTYTSDYWGQGTQVTVSS	low polyreactivity
QVQLVETGGGLVQAVGSLRLSCAASGYTFLLYAMGWYRQAPGKERELVASISWNVGSTYYADSVKGRFTISRDNAKNTVYLQMNSLKPEDTAVYYCARGYERPRVATFHRFDYWGLGTQVTVSS	low polyreactivity
QVQLVESGGGLVQAGGSLRLSCAASGRISTRYTMGWYRQAPGKERELVAAISGNAGRTYYADSVKGRFTISRDNAKNTVYVQMNSLKPADTAVYYCARESGYRAYEIQFYYWGQGTQVTVSS	high polyreactivity
QVQLVESGGGLVQAGGSLRLSCAASGFISGYYTMRWYRQAPGKERELVAVINSGGSTYYADSVKGRFTISRDNAKNTVYLQMNSLKPEDTAVYYCAKLGGKYSRYYYWGQGTQVTVSS	low polyreactivity
QVQLVESGVGLVQAGGSLRLSCAASGRIFRYYTMGRYRHAPGKERELVAAITKSGGRTYYADSVKGRFTISRDTANNTVYLQMNSLKPEDTAVYYCAARRLYWGQGTQVTVSS	high polyreactivity
QVQLVESGGGLVQAGGSLRLSCAASGRIFIVNAMGWYRQAPGKERELVAAIRTGGSNTYYADSVKGRFTISRDNAKNTVSLQMTSLKPEDTAVYYCNARSTRRINYWGQGTQVTVSS	high polyreactivity
QVQLVESGAGLVQAGGSLRLSCAASGSIFPRYAMGWYRQAPWTERELVAAITNGGSTDYADSVKGRFTISRDNAKNTVYLQMNSLKPEDTAVYYCAADLAVGIYPEDGEYWGQGTQVTVSS	low polyreactivity
QVQLVESGGGLVQAGGSLRLSCAASGSTLGHNAMGWYRQAPGKERELVAAITSSGGRTYYADSVKGRFTISRDNAKNTVYLQMYSLKPEDTAVYYCAAKLHGYYDVFGQSHRTYDYWGQGTQVTVSS	high polyreactivity
QVQLVESGGGLVQAGGSLRLSCAASGSIFASYALGWYRQAAGKEREFVAAISQSGSRTYNADSVKGRFTISRDNANNTVSLHMNSLKPEDTAVYYCNAKRGTWNYDYWGQGTQVTVSS	high polyreactivity
